For one test, the target named is T1, human TFPI K1 (human, UniProt P10646 29-107, limits assumed).
T1 construct: domain: K1; also called Kunitz domain 1
T1 sequence (looked up): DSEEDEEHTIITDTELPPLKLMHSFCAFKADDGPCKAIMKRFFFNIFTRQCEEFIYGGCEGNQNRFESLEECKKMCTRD
The test can be described thus: Western blots and ELISA. The protocol:
Western blots and ELISA were used to determine which domain(s) of TFPI of the inhibitory antibodies bind. Recombinant full length human TFPI or TFPI domains were used for these studies. ELISA was similar to Example 3. In the Western Blot, human TFPI or domains were run on 4-12% Bis-Tris SDS PAGE running buffer MES (Invitrogen, Carlsbad, Calif.) and then transferred to cellulose membrane. After incubation with inhibitory antibodies for 10 min, the membrane was washed three times using SNAPid system (Millipore, Billerica, Mass.). A HRP conjugated donkey anti-mouse antibody (Pierce, Rockford, Ill.) at 1 to 10,000 dilution was incubated with the membrane for 10 min. After a similar wash step, the membrane was developed using SuperSignal substrate (Pierce, Rockford, Ill.). Whereas the control anti-Kunitz domain 1 antibody binds to full length TFPI, truncated TFPI and domains, inhibitory anti-TFPI antibodies only bind to TFPI containing Kunitz domain 2.

Test [1] addresses T2, human tissue factor pathway inhibitor (TFPI) (human, UniProt P10646 29-304, limits assumed).
T2 sequence (looked up): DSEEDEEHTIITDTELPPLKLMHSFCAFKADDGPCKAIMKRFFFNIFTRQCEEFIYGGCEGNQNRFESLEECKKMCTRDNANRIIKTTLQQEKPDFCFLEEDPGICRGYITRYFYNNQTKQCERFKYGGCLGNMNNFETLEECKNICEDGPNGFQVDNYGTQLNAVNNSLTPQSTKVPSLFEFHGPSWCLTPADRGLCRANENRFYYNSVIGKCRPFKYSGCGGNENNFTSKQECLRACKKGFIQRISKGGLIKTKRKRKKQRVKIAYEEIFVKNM
The test can be described thus: cell-based or functional assay.

Another test has as its target T3, BSA (bovine, UniProt P02769 25-607).
T3 construct: also called bovine serum albumin
The test can be described thus: ELISA. The method in brief: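 Fab from E. coli TG1 lysates bound to plates coated with human TFPI, or with mouse TFPI for cross-reactivity, with BSA and lysozyme as negative controls. Detection by HRP-anti-human Fab with AmplexRed/H2O2; signal ≥5-fold over background scored positive.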

The target of test [2] is T2, human tissue factor pathway inhibitor …. In words: Biacore, TFPI on CM5 chip, Fab in mobile phase. The essentials: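 Surface plasmon resonance with human or mouse TFPI amine-coupled to a CM5 chip at approximately 300 RU. Purified Fabs were injected in mobile phase at 0.1, 0.4, 1.6, 6.4 and 25 nM. Kinetics and binding affinity were derived from the sensorgrams.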
The target is the same in test [3]. In words: ELISA, Fab on coated TFPI. The method in brief: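 Purified Fabs titrated on human or mouse TFPI-coated plates; bound Fab detected with HRP anti-human Fab and AmplexRed/H2O2 to derive EC50. Affinity and kinetics by Biacore: TFPI amine-coupled on CM5 (~300 RU), Fabs in mobile phase at 0.1, 0.4, 1.6, 6.4 and 25 nM.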
Test [4] addresses T4, mouse tissue factor pathway inhibitor (TFPI) (mouse, UniProt O54819 29-289, limits assumed).
T4 construct: Bought protein; also called mouse TFPI; mTFPI
T4 sequence (looked up): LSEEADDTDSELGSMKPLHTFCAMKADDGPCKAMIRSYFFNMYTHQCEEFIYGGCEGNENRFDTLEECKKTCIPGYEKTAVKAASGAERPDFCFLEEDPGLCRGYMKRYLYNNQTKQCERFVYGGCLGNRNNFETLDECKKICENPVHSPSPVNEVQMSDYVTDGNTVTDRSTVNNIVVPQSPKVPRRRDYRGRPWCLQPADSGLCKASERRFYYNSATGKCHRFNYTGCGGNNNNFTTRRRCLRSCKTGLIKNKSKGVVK
The test can be described thus: ELISA, Fab on coated mouse TFPI. The protocol:
To select antibody clones that bind to human TFPI, Fab genes of the phage clones from the second and third round of panning were subcloned into a bacterial expression vector and expressed in E. coli strain TG1. The bacterial lysate was added to the wells of the human TFPI-coated Maxisorp plates. After washing, HRP-conjugated goat anti-human Fab was used as a detection antibody and the plates were developed by adding AmplexRed (Invitrogen) with hydrogen peroxide. A signal of at least five-fold higher than the background was considered as positive. The cross reactivity of the anti-human TFPI antibodies to mouse TFPI was determined by a similar mouse TFPI-binding ELISA. The plates were coated with mouse TFPI (R&D System), BSA and lysozyme. The later two antigens were used as negative controls.

Test [5] has as its target T4, mouse tissue factor pathway inhibitor …. The test can be described thus: ELISA, IgG against Fab.
Test [6] deals with T2, human tissue factor pathway inhibitor …. The test can be described thus: ELISA, IgG against Fab.
In test [7] the target is T4, mouse tissue factor pathway inhibitor …. The test can be described thus: ELISA, IgG on coated mouse TFPI.
Test [8] has as its target T2, human tissue factor pathway inhibitor …. In words: ELISA, IgG on coated human TFPI.

T3 sequence (P02769 25-607 limits assumed): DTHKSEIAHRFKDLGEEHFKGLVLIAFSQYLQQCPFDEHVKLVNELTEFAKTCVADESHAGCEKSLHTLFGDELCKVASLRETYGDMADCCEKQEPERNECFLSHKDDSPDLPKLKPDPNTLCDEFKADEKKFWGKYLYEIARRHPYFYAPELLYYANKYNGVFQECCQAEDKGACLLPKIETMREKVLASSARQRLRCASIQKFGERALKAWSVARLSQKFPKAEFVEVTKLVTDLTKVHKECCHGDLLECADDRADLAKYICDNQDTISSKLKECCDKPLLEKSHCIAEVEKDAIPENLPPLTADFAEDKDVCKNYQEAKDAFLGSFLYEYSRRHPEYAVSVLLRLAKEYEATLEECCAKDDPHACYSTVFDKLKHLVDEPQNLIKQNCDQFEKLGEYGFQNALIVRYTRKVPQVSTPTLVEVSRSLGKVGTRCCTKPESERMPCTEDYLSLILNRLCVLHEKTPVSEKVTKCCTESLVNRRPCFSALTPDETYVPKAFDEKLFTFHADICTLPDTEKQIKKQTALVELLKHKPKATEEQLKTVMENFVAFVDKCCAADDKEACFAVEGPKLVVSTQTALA

B1: TP-4B7 chimeric IgG (antibody, V domains shown)
VH: QVQLQQSGPGLVKPSQTLSLTCAISGDSVSSNSAAWSWIRQSPGRGLEWLGIIYKRSKWYNDYAVSVKSRITINPDTSKNQFSLQLNSVTPEDTAVYYCARWHSDKHWGFDYWGQGTLVTVSS
VL: DIVMTQSPLSLPVTPGEPASISCRSSQSLVFSDGNTYLNWYLQKPGQSPQLLIYKGSNRASGVPDRFSGSGSGTDFTLKISRVEAEDVGVYYCQQYDSYPLTFGQGTKVEIKR
notes: Chimeric IgG: human variable regions on mouse constant regions, murine IgG1 isotype, made in HKB11 cells
As for B1, the binding result with human TFPI K1 is “no binding”.

B2: TP-2C1 Fab (Fab, V domains shown)
VH: QVQLVESGGGLVQPGGSLRLSCAASGFTFSPYVMSWVRQAPGKGLEWVSSISSSSSNTYYADSVKGRFTISRDNSKNTLYLQMNSLRAEDTAVYYCARGDSYMYDVWGQGTLVTVSS
VL: DIELTQPPSVSVAPGQTARISCSGDSIGSYYAHWYQQKPGQAPVLVIYYDSKRPSGIPERFSGSNSGNTATLTISGTQAEDEADYYCQAYTGQSISRVFGGGTKLTVLG
notes: Human Fab from HuCal Gold, expressed in E. coli TG1
Take B2: in test [1], the “% inhibition of hTFPI activity” value was found to be 21%. Also, the “dPT in hemoA plasma” value in test [1] came to 70.9 s. The binding result (in the test with BSA; in test [4]) was “no binding” in each case. Further, the Kd in test [2] was found to be 2.64 nM. This molecule also gave an EC50 in test [3] of 0.4 nM.

B3: TP-4H8 Fab (Fab, V domains shown)
VH: QVQLVESGGGLVQPGGSLRLSCAASGFTFSDHAMHWVRQAPGKGLEWVSVIEYSGSKTNYADSVKGRFTISRDNSKNTLYLQMNSLRAEDTAVYYCARGDYYPYLVFAIWGQGTLVTVSS
VL: DIELTQPPSVSVAPGQTARISCSGDSIGKKYVHWYQQKPGQAPVLVIYGDNNRPSGIPERFSGSNSGNTATLTISGTQAEDEADYYCSTADSVITYKNVFGGGTKLTVLG
notes: as for B2
As for B3, in [1], the “% inhibition of hTFPI activity” value is 28% and the “dPT in hemoA plasma” value was 76.5 s. In addition, in the test with BSA, the binding result is listed as “no binding”. In test [2], this molecule gave a Kd of 32.2 nM. In test [3], this molecule had an EC50 of 72.5 nM. In addition, the binding result in test [4] is “no binding”.

B4: 2G6-IgG (antibody, V domains shown)
VH: QVQLQQSGPGLVKPSQTLSLTCAISGDSVSSSSAAWSWIRQSPGRGLEWLGIIYYRSKWYNDYAVSVKSRITINPDTSKNQFSLQLNSVTPEDTAVYYCARHSMVGFDVWGQGTLVTVSS
VL: DIVLTQSPATLSLSPGERATLSCRASQYVTSSYLAWYQQKPGQAPRLLIYGSSRATGVPARFSGSGSGTDFTLTISSLEPEDFATYYCQQYSSSPITFGQGTKVEIKR
notes: Chimeric IgG: human variable regions on mouse constant regions, murine IgG1 isotype, made in HKB11 cells; also called IgG-2G6; TP-2G6 chimeric IgG
With B4, the binding result with human TFPI K1 is on record as “no binding”. The “fold change of EC50 against 2G6-Fab” value came out at 10 fold in test [5] and 2 fold in test [6]. The results for the EC50 in [7] and in [8] were 0.51 nM and 0.22 nM, respectively.

B5: TP-4E8 Fab (Fab, V domains shown)
VH: QVQLVESGGGLVQPGGSLRLSCAASGFTFNDYAMSWVRQAPGKGLEWVSLIESVSSSTYYADSVKGRFTISRDNSKNTLYLQMNSLRAEDTAVYYCARTIGVLWDDVWGQGTLVTVSS
VL: DIELTQPPSVSVAPGQTARISCSGDALGSKYVSWYQQKPGQAPVLVIYGDNKRPSGIPERFSGSNSGNTATLTISGTQAEDEADYYCQSYTYSLNQVFGGGTKLTVLG
notes: as for B2
For B5, the “% inhibition of hTFPI activity” value in test [1] is 29%. Moreover, the “dPT in hemoA plasma” value in test [1] was determined as 71.9 s. Further, the binding result (with BSA; in [4]) was “no binding” in each case. For the same molecule, the Kd in [2] worked out at 35.9 nM. A half-maximal response in test [3] (EC50) required 36.9 nM.

B6: TP-2G7 Fab (Fab, V domains shown)
VH: QVQLVESGGGLVQPGGSLRLSCAASGFTFNSYAMSWVRQAPGKGLEWVSNISSNSSNTYYADSVKGRFTISRDNSKNTLYLQMNSLRAEDTAVYYCARKGGGEHGFFPSDIWGQGTLVTVSS
VL: DIELTQPPSVSVAPGQTARISCSGDNLGTYYVHWYQQKPGQAPVLVIYGDNNRPSGIPERFSGSNSGNTATLTISGTQAEDEADYYCQTYDSNNESIVFGGGTKLTVLG
notes: as for B2
For B6, in test [1], the “% inhibition of hTFPI activity” value was found to be 55% and the “dPT in hemoA plasma” value was determined as 72.2 s. In addition, in the test with BSA, the binding result is given as “no binding”. The same molecule had a Kd in test [2] of 26.9 nM. This molecule also showed an EC50 in [3] of 23.5 nM. Further, the binding result in [4] is on record as “no binding”.

B7: TP-4G8 Fab (Fab, V domains shown)
VH: QVQLVESGGGLVQPGGSLRLSCAASGFTFSTYAMHWVRQAPGKGLEWVSTISGYGSFTYYADSVKGRFTISRDNSKNTLYLQMNSLRAEDTAVYYCARNGRKYGQMDNWGQGTLVTVSS
VL: DIELTQPPSVSVAPGQTARISCSGDKLGSKSVHWYQQKPGQAPVLVIYRDTDRPSGIPERFSGSNSGNTATLTISGTQAEDEADYYCQTYDYILNVFGGGTKLTVLG
notes: as for B2
In the case of B7, in test [1], the “% inhibition of hTFPI activity” value is 39% and the “dPT in hemoA plasma” value came out at 73.9 s. Besides, the binding result in the test with BSA is “no binding”. In [2], this molecule yielded a Kd of 25.2 nM. The EC50 in test [3] turned out to be 847 nM. In addition, the binding result in test [4] is on record as “no binding”.
